These results are taken from PMC12525521, “N-Terminal Metal-Binding Domain of Arabidopsis IBR5 Is Important for Its in Planta Functions” (International Journal of Molecular Sciences, 2025).

The data set deals with the molecule itself. Briefly: SEC; FPLC on HiPrep 26/60 Sephacryl S-300 HR after Ni-NTA purification; 100 mM Tris-HCl pH 8.0, 150 mM NaCl; sizes estimated from a standard curve with the Bio-Rad Gel Filtration Standard; His-SUMO tag kept.

Values joined by “and” are separate entries in the source; they are usually repeats but may differ in a detail not shown here. Equal entries are not always repeated.

B1: SUMO-AtIBR5-p (N-terminal 6x His-SUMO tag fused to aa 48-257 of AtIBR5, only the DSP_plant_IBR5-like domain) (domain or fragment, Arabidopsis thaliana, UniProt Q84JU4 48-257, looked up)
chain: AFPSEILPEFLYLGSYDNASRSELLKTQGISRVLNTVPMCQNLYRNSFTYHGLDNEKVLQFDDAIKFLDQCEKDKARVLVHCMSGKSRSPAVVVAYLMKRKGWRLAESHQWVKQRRPSTDISPEFYQQLQEFEQGIFGSEMMSAMNINDAPTFGFGFPKIDNQAQAPVFNNAPTSSIFSSPASSIPPQEFTFGATPPKPTTGGDIAMDGS
notes: One glycine residue stands as a linker between the 6x His-SUMO tag and the AtIBR5 stretch; also called N-terminally truncated AtIBR5; source: E. coli BL21 HiControl, purified (Ni-NTA, SEC); not shown: His6, N-terminal, kept; SUMO, N-terminal, kept
A word on the stoichiometry N: it is the number of molecules, sites or subunits per partner or assembly. With B1, the “stoichiometry N” value is 2 and 4.

B2: SUMO-AtIBR5 (N-terminal 6X His-tagged SUMO fused to the 257-amino acid-long Arabidopsis thaliana indole-3-butyric acid response 5) (enzyme, UniProt Q84JU4 1-257, looked up)
chain: MRKRERENPCSICGHYHKYEEGEVCGVCGHCMPVSSDTVAPQQVHVSAFPSEILPEFLYLGSYDNASRSELLKTQGISRVLNTVPMCQNLYRNSFTYHGLDNEKVLQFDDAIKFLDQCEKDKARVLVHCMSGKSRSPAVVVAYLMKRKGWRLAESHQWVKQRRPSTDISPEFYQQLQEFEQGIFGSEMMSAMNINDAPTFGFGFPKIDNQAQAPVFNNAPTSSIFSSPASSIPPQEFTFGATPPKPTTGGDIAMDGS
notes: AtIBR5, dual-specificity phosphatase, Arabidopsis thaliana, UniProt Q84JU4, AT2G04550; One glycine residue (codon GGU) stands as a linker between the 6X His-SUMO tag and AtIBR5; Cloned with the Expresso T7 SUMO system (pETite N-His SUMO Kan vector); Expected monomer about 42 kDa; also called SUMO-AtIBR5 wild-type protein; source: E. coli BL21 HiControl, purified (Ni-NTA, SEC); not shown: His6, …
As for B2, the “stoichiometry N” value was 4 and 2.

B3: SUMO-AtIBR5-q (quadruple mutant of SUMO-AtIBR5, all four conserved cysteine residues substituted with glycine) (enzyme, Arabidopsis thaliana, UniProt Q84JU4 1-257, looked up)
chain: MRKRERENPGSIGGHYHKYEEGEVGGVGGHCMPVSSDTVAPQQVHVSAFPSEILPEFLYLGSYDNASRSELLKTQGISRVLNTVPMCQNLYRNSFTYHGLDNEKVLQFDDAIKFLDQCEKDKARVLVHCMSGKSRSPAVVVAYLMKRKGWRLAESHQWVKQRRPSTDISPEFYQQLQEFEQGIFGSEMMSAMNINDAPTFGFGFPKIDNQAQAPVFNNAPTSSIFSSPASSIPPQEFTFGATPPKPTTGGDIAMDGS
notes: One glycine residue stands as a linker between the 6x His-SUMO tag and AtIBR5; also called quadruple AtIBR5 mutant; C10G C13G C25G C28G; source: E. coli BL21 HiControl, purified (Ni-NTA, SEC); not shown: His6, N-terminal, kept; SUMO, N-terminal, kept
As for B3, the “stoichiometry N” value was 2 and 4.
